Conditions: Equus caballus, pH 7.4, 25 °C, GdnHCl, reversible: Yes

Sequence of Cytochrome c wild type, P00004 (P00004 whole entry): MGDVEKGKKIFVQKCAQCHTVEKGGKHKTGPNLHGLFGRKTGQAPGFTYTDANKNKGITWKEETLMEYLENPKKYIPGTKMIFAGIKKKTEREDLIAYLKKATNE

Cytochrome c wild type, P00004
denaturant m value (CD, Tris 20 mM): 2.8 kcal/mol/M | unfolding free energy (CD, Tris 20 mM): 7.4 kcal/mol | denaturant m value (SUPREX, Sodium phosphate 20 mM): 3 kcal/mol/M
